In article PMC5389851:

Target: HCMV glycoprotein gO (virion, strain TB40) (human cytomegalovirus strain TB40 (endogenous in virions))

With “recombinant human PDGFR-α-Fc fusion protein (from UniProt P16234)” the infection of HFF with wt TB40-luc virus pre-incubated with PDGFR-α-Fc (one hour at 4°C; luciferase assay), residual infection; blocks gH/gL/gO of virions with PDGFR-α on HFF was 0.5%.
